Measurements from patent publication US12099068B2, “Biomarkers for graft-versus-host disease” (Incyte Corporation, priority 2018, dated 2024).

B1: PAM (protein, UniProt P19021 31-973, looked up)
Peptidyl-glycine …: FKETTRPFSNECLGTTRPVVPIDSSDFALDIRMPGVTPKQSDTYFCMSMRIPVDEEAFVIDFKPRASMDTVHHMLLFGCNMPSSTGSYWFCDEGTCTDKANILYAWARNAPPTRLPKGVGFRVGGETGSKYFVLQVHYGDISAFRDNNKDCSGVSLHLTRLPQPLIAGMYLMMSVDTVIPAGEKVVNSDISCHYKNYPMHVFAYRVHTHHLGKVVSGYRVRNGQWTLIGRQSPQLPQAFYPVGHPVDVSFGDLLAARCVFTGEGRTEATHIGGTSSDEMCNLYIMYYMEAKHAVSFMTCTQNVAPDMFRTIPPEANIPIPVKSDMVMMHEHHKETEYKDKIPLLQQPKREEEEVLDQGDFYSLLSKLLGEREDVVHVHKYNPTEKAESESDLVAEIANVVQKKDLGRSDAREGAEHERGNAILVRDRIHKFHRLVSTLRPPESRVFSLQQPPPGEGTWEPEHTGDFHMEEALDWPGVYLLPGQVSGVALDPKNNLVIFHRGDHVWDGNSFDSKFVYQQIGLGPIEEDTILVIDPNNAAVLQSSGKNLFYLPHGLSIDKDGNYWVTDVALHQVFKLDPNNKEGPVLILGRSMQPGSDQNHFCQPTDVAVDPGTGAIYVSDGYCNSRIVQFSPSGKFITQWGEESSGSSPLPGQFTVPHSLALVPLLGQLCVADRENGRIQCFKTDTKEFVREIKHSSFGRNVFAISYIPGLLFAVNGKPHFGDQEPVQGFVMNFSNGEIIDIFKPVRKHFDMPHDIVASEDGTVYIGDAHTNTVWKFTLTEKLEHRSVKKAGIEVQEIKEAEAVVETKMENKPTSSELQKMQEKQKLIKEPGSGVPVVLITTLLVIPVVVLLAIAIFIRWKKSRAFGDSEHKLETSSGRVLGRFRGKGSGGLNLGNFFASRKGYSRKGFDRLSTEGSDQEKEDDGSESEEEYSAPLPALAPSSS
B2: BACH1 (protein, UniProt O14867 1-736, looked up)
Transcription regulator …: MSLSENSVFAYESSVHSTNVLLSLNDQRKKDVLCDVTIFVEGQRFRAHRSVLAACSSYFHSRIVGQADGELNITLPEEVTVKGFEPLIQFAYTAKLILSKENVDEVCKCVEFLSVHNIEESCFQFLKFKFLDSTADQQECPRKKCFSSHCQKTDLKLSLLDQRDLETDEVEEFLENKNVQTPQCKLRRYQGNAKASPPLQDSASQTYESMCLEKDAALALPSLCPKYRKFQKAFGTDRVRTGESSVKDIHASVQPNERSENECLGGVPECRDLQVMLKCDESKLAMEPEETKKDPASQCPTEKSEVTPFPHNSSIDPHGLYSLSLLHTYDQYGDLNFAGMQNTTVLTEKPLSGTDVQEKTFGESQDLPLKSDLGTREDSSVASSDRSSVEREVAEHLAKGFWSDICSTDTPCQMQLSPAVAKDGSEQISQKRSECPWLGIRISESPEPGQRTFTTLSSVNCPFISTLSTEGCSSNLEIGNDDYVSEPQQEPCPYACVISLGDDSETDTEGDSESCSAREQECEVKLPFNAQRIISLSRNDFQSLLKMHKLTPEQLDCIHDIRRRSKNRIAAQRCRKRKLDCIQNLESEIEKLQSEKESLLKERDHILSTLGETKQNLTGLCQKVCKEAALSQEQIQILAKYSAADCPLSFLISEKDKSTPDGELALPSIFSLSDRPPAVLPPCARGNSEPGYARGQESQQMSTATSEQAGPAEQCRQSGGISDFCQQMTDKCTTDE
B3: CNTNAP2 (protein, UniProt Q9UHC6 28-1331, looked up)
Contactin-associated …: APSTSQKCDEPLVSGLPHVAFSSSSSISGSYSPGYAKINKRGGAGGWSPSDSDHYQWLQVDFGNRKQISAIATQGRYSSSDWVTQYRMLYSDTGRNWKPYHQDGNIWAFPGNINSDGVVRHELQHPIIARYVRIVPLDWNGEGRIGLRIEVYGCSYWADVINFDGHVVLPYRFRNKKMKTLKDVIALNFKTSESEGVILHGEGQQGDYITLELKKAKLVLSLNLGSNQLGPIYGHTSVMTGSLLDDHHWHSVVIERQGRSINLTLDRSMQHFRTNGEFDYLDLDYEITFGGIPFSGKPSSSSRKNFKGCMESINYNGVNITDLARRKKLEPSNVGNLSFSCVEPYTVPVFFNATSYLEVPGRLNQDLFSVSFQFRTWNPNGLLVFSHFADNLGNVEIDLTESKVGVHINITQTKMSQIDISSGSGLNDGQWHEVRFLAKENFAILTIDGDEASAVRTNSPLQVKTGEKYFFGGFLNQMNNSSHSVLQPSFQGCMQLIQVDDQLVNLYEVAQRKPGSFANVSIDMCAIIDRCVPNHCEHGGKCSQTWDSFKCTCDETGYSGATCHNSIYEPSCEAYKHLGQTSNYYWIDPDGSGPLGPLKVYCNMTEDKVWTIVSHDLQMQTPVVGYNPEKYSVTQLVYSASMDQISAITDSAEYCEQYVSYFCKMSRLLNTPDGSPYTWWVGKANEKHYYWGGSGPGIQKCACGIERNCTDPKYYCNCDADYKQWRKDAGFLSYKDHLPVSQVVVGDTDRQGSEAKLSVGPLRCQGDRNYWNAASFPNPSSYLHFSTFQGETSADISFYFKTLTPWGVFLENMGKEDFIKLELKSATEVSFSFDVGNGPVEIVVRSPTPLNDDQWHRVTAERNVKQASLQVDRLPQQIRKAPTEGHTRLELYSQLFVGGAGGQQGFLGCIRSLRMNGVTLDLEERAKVTSGFISGCSGHCTSYGTNCENGGKCLERYHGYSCDCSNTAYDGTFCNKDVGAFFEEGMWLRYNFQAPATNARDSSSRVDNAPDQQNSHPDLAQEEIRFSFSTTKAPCILLYISSFTTDFLAVLVKPTGSLQIRYNLGGTREPYNIDVDHRNMANGQPHSVNITRHEKTIFLKLDHYPSVSYHLPSSSDTLFNSPKSLFLGKVIETGKIDQEIHKYNTPGFTGCLSRVQFNQIAPLKAALRQTNASAHVHIQGELVESNCGASPLTLSPMSSATDPWHLDHLDSASADFPYNPGQGQAIRNGVNRNSAIIGGVIAVVIFTILCTLVFLIRYMFRHKGTYHTNEAKGAESAESADAAIMNNDPNFTETIDESKKEWLI
B4: PVR (protein, UniProt P15151 21-417, looked up)
Poliovirus receptor: WPPPGTGDVVVQAPTQVPGFLGDSVTLPCYLQVPNMEVTHVSQLTWARHGESGSMAVFHQTQGPSYSESKRLEFVAARLGAELRNASLRMFGLRVEDEGNYTCLFVTFPQGSRSVDIWLRVLAKPQNTAEVQKVQLTGEPVPMARCVSTGGRPPAQITWHSDLGGMPNTSQVPGFLSGTVTVTSLWILVPSSQVDGKNVTCKVEHESFEKPQLLTVNLTVYYPPEVSISGYDNNWYLGQNEATLTCDARSNPEPTGYNWSTTMGPLPPFAVAQGAQLLIRPVDKPINTTLICNVTNALGARQAELTVQVKEGPPSEHSGISRNAIIFLVLGILVFLILLGIGIYFYWSKCSREVLWHCHLCPSSTEHASASANGHVSYSAVSRENSSSQDPQTEGTR
B5: MATN3 (protein, UniProt O15232 29-486, looked up)
Matrilin-3: DPVARPGFRRLETRGPGGSPGRRPSPAAPDGAPASGTSEPGRARGAGVCKSRPLDLVFIIDSSRSVRPLEFTKVKTFVSRIIDTLDIGPADTRVAVVNYASTVKIEFQLQAYTDKQSLKQAVGRITPLSTGTMSGLAIQTAMDEAFTVEAGAREPSSNIPKVAIIVTDGRPQDQVNEVAARAQASGIELYAVGVDRADMASLKMMASEPLEEHVFYVETYGVIEKLSSRFQETFCALDPCVLGTHQCQHVCISDGEGKHHCECSQGYTLNADKKTCSALDRCALNTHGCEHICVNDRSGSYHCECYEGYTLNEDRKTCSAQDKCALGTHGCQHICVNDRTGSHHCECYEGYTLNADKKTCSVRDKCALGSHGCQHICVSDGAASYHCDCYPGYTLNEDKKTCSATEEARRLVSTEDACGCEATLAFQDKVSSYLQRLNTKLDDILEKLKINEYGQIHR
B6: MEPE (protein, UniProt Q9NQ76 18-525, looked up)
Matrix extracellular …: PTFQPQTEKTKQSCVEEQRQEEKNKDNIGFHHLGKRINQELSSKENIVQERKKDLSLSEASENKGSSKSQNYFTNRQRLNKEYSISNKENTHNGLRMSIYPKSTGNKGFEDGDDAISKLHDQEEYGAALIRNNMQHIMGPVTAIKLLGEENKENTPRNVLNIIPASMNYAKAHSKDKKKPQRDSQAQKSPVKSKSTHRIQHNIDYLKHLSKVKKIPSDFEGSGYTDLQERGDNDISPFSGDGQPFKDIPGKGEATGPDLEGKDIQTGFAGPSEAESTHLDTKKPGYNEIPEREENGGNTIGTRDETAKEADAVDVSLVEGSNDIMGSTNFKELPGREGNRVDAGSQNAHQGKVEFHYPPAPSKEKRKEGSSDAAESTNYNEIPKNGKGSTRKGVDHSNRNQATLNEKQRFPSKGKSQGLPIPSRGLDNEIKNEMDSFNGPSHENIITHGRKYHYVPHRQNNSTRNKGMPQGKGSWGRQPHSNRRFSSRRRDDSSESSDSGSSSESDGD
B7: TXLNA (protein, UniProt P40222 1-546, looked up)
Alpha-taxilin: MKNQDKKNGAAKQSNPKSSPGQPEAGPEGAQERPSQAAPAVEAEGPGSSQAPRKPEGAQARTAQSGALRDVSEELSRQLEDILSTYCVDNNQGGPGEDGAQGEPAEPEDAEKSRTYVARNGEPEPTPVVNGEKEPSKGDPNTEEIRQSDEVGDRDHRRPQEKKKAKGLGKEITLLMQTLNTLSTPEEKLAALCKKYAELLEEHRNSQKQMKLLQKKQSQLVQEKDHLRGEHSKAVLARSKLESLCRELQRHNRSLKEEGVQRAREEEEKRKEVTSHFQVTLNDIQLQMEQHNERNSKLRQENMELAERLKKLIEQYELREEHIDKVFKHKDLQQQLVDAKLQQAQEMLKEAEERHQREKDFLLKEAVESQRMCELMKQQETHLKQQLALYTEKFEEFQNTLSKSSEVFTTFKQEMEKMTKKIKKLEKETTMYRSRWESSNKALLEMAEEKTVRDKELEGLQVKIQRLEKLCRALQTERNDLNKRVQDLSAGGQGSLTDSGPERRPEGPGAQAPSSPRVTEAPCYPGAPSTEASGQTGPQEPTSARA
B8: CPM (protein, UniProt P14384 18-423, looked up)
Carboxypeptidase M: LDFNYHRQEGMEAFLKTVAQNYSSVTHLHSIGKSVKGRNLWVLVVGRFPKEHRIGIPEFKYVANMHGDETVGRELLLHLIDYLVTSDGKDPEITNLINSTRIHIMPSMNPDGFEAVKKPDCYYSIGRENYNQYDLNRNFPDAFEYNNVSRQPETVAVMKWLKTETFVLSANLHGGALVASYPFDNGVQATGALYSRSLTPDDDVFQYLAHTYASRNPNMKKGDECKNKMNFPNGVTNGYSWYPLQGGMQDYNYIWAQCFEITLELSCCKYPREEKLPSFWNNNKASLIEYIKQVHLGVKGQVFDQNGNPLPNVIVEVQDRKHICPYRTNKYGEYYLLLLPGSYIINVTVPGHDPHITKVIIPEKSQNFSALKKDILLPFQGQLDSIPVSNPSCPMIPLYRNLPDHS
B9: VWC2 (protein, UniProt Q2TAL6 28-325, looked up)
Brorin: SPSIPLEKLAQAPEQPGQEKREHASRDGPGRVNELGRPARDEGGSGRDWKSKSGRGLAGREPWSKLKQAWVSQGGGAKAGDLQVRPRGDTPQAEALAAAAQDAIGPELAPTPEPPEEYVYPDYRGKGCVDESGFVYAIGEKFAPGPSACPCLCTEEGPLCAQPECPRLHPRCIHVDTSQCCPQCKERKNYCEFRGKTYQTLEEFVVSPCERCRCEANGEVLCTVSACPQTECVDPVYEPDQCCPICKNGPNCFAETAVIPAGREVKTDECTICHCTYEEGTWRIERQAMCTRHECRQM

system: plasma proteins; assay: Plasma proteins modulated between baseline and day 28 in responders (CR, VGPR, PR; n = 19), Example 6 (Table 13); format: in vivo, human; conditions: plasma protein (OLINK NPX); responders (CR, VGPR, PR; n = 19); itacitinib 200 mg or 300 mg QD with corticosteroids; day 28 vs baseline
Method in brief: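 Plasma at baseline/screening and day 28 profiled for >1000 proteins by OLINK proximity extension assay, reported as NPX (log2). Steroid-naive and steroid-refractory patients pooled. Paired and unpaired t tests, ANOVA and Pearson correlation applied; significance at P<0.05.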

Molecule	Fold Change, Increased Expression from Baseline to Day 28	Fold Change, Decreased Expression from Baseline to Day 28
B1	1.1653	–
B2	–	−1.4794
B3	–	−1.3091
B4	1.1964	–
B5	–	−1.3384
B6	–	−1.4941
B7	–	−1.5277
B8	1.1479	–
B9	1.3331	–
